# Reference: patent publication US20250188033A1, “INHIBITOR OF REPLICATION PROTEIN A1 OF TRYPANOSOMA BRUCEI AND METHOD OF USE THEREOF” (Research Foundation of the City University of New York, published 2025)
# T1: TcRPA1 DBD-AB (Trypanosoma cruzi, UniProt Q4DXC9 Q4DXC9:1-256)
# T1 sequence: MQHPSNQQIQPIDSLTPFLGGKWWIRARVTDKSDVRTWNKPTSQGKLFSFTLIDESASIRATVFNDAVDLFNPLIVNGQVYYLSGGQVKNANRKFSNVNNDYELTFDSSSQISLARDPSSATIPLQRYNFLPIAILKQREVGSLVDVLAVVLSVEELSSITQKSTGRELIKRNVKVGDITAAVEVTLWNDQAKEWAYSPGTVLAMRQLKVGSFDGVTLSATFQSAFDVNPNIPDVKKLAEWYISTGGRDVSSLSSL
# T2: LmexRPA1 DBD-AB (Leishmania mexicana, UniProt E9B001 E9B001:1-258)
# T2 sequence: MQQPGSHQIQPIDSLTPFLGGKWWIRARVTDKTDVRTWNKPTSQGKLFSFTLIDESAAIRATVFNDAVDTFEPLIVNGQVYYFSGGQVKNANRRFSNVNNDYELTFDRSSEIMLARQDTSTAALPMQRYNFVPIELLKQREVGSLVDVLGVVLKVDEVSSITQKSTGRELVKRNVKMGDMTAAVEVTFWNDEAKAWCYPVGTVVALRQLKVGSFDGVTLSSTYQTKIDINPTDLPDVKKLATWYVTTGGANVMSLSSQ
# T3: TbRPA complex (RPA1/RPA2/RPA3) (Trypanosoma brucei, UniProt Q384B5;Q57ZN9;Q38DK0 Q384B5:1-463,Q57ZN9:1-255,Q38DK0:1-127)
# T3 sequence 1: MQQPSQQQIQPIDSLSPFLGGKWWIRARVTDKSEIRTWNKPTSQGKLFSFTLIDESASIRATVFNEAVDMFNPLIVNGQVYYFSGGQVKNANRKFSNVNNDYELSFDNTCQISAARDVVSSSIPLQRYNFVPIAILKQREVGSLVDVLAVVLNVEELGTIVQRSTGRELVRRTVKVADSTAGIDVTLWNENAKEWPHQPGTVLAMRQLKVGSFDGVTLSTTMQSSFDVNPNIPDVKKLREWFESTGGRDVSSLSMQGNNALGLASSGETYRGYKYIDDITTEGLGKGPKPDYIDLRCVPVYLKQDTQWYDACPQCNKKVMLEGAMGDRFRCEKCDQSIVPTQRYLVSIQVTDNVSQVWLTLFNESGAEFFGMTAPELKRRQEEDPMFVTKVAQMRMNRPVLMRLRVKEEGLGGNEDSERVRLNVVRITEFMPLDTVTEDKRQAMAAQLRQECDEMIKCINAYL
# T3 sequence 2: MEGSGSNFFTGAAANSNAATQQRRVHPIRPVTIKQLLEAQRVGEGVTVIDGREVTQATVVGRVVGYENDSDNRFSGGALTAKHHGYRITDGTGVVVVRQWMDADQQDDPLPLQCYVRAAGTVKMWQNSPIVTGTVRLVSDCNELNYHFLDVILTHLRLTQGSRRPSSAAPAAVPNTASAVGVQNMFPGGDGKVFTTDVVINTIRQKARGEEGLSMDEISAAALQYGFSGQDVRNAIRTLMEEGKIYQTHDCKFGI
# T3 sequence 3: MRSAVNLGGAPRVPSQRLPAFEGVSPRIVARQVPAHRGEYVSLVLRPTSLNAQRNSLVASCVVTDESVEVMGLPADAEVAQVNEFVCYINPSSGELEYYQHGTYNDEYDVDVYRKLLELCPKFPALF
# What was measured:
# TcRPA1 DBD-AB T105S = TcRPA1 DBD-AB T105S (Trypanosoma cruzi, UniProt Q4DXC9 Q4DXC9:1-256, T105S); assay: MST; 10 mM MgCl2, 22 C; JC-229 IC50 159x10^3 nM; conditions: tags: N-terminal 6xHis, pET28a, E. coli; label: 5' Cy5
# TbRPA1 DBD-AB F64A = TbRPA1 DBD-AB F64A (Trypanosoma brucei, UniProt Q384B5 Q384B5:1-257, F64A); assay: MST; no ssDNA-binding activity; conditions: tags: 6xHis, pET28a, E. coli; label: 5' Cy5
# TbRPA1 DBD-AB W188A = TbRPA1 DBD-AB W188A (Trypanosoma brucei, UniProt Q384B5 Q384B5:1-257, W188A); assay: MST; no ssDNA-binding activity; conditions: tags: 6xHis, pET28a, E. coli; label: 5' Cy5
# TcRPA1 DBD-AB = molecular target: T1, TcRPA1 DBD-AB; assay: MST; p171-172 quotes 12.6 nM for the same WT protein; 10 mM MgCl2, 22 C; not inhibited by JC-229; conditions: tags: N-terminal 6xHis, pET28a (pSR13), E. coli; label: 5' Cy5
# Experimental: (§1) MST experiments were performed on Monolith NT.115 instrument with red filter (Nanotemper Technologies) in MST binding buffer (20 mM Tris, pH 7.5, 10 mM NaCl, 10 mM MgCl₂, 2 mM DTT, 10% glycerol and 0.1 mg/ml BSA) using premium-coated capillaries (Nanotemper Technologies). MST experiments were performed with 40% LED power and 40% MST power at 22° C.
# (§2) ssDNA-binding assay: The 5′Cy5 labeled-oligo dT32 was purchased from IDT. Increasing concentrations of purified protein (from 0.06 nM to 2,000 nM for DBD-AB proteins; from 0.02 nM to 800 nM for RPA complexes) were incubated with equal volume (10 μl) of 5′Cy5-labeld oligo dT₃₂ (10 nM final concentration) in MST binding buffer for 15 min at room temperature. Samples were then loaded into MST capillaries.
# LmexRPA1 DBD-AB = molecular target: T2, LmexRPA1 DBD-AB; assay: MST; 10 mM MgCl2, 10 mM NaCl, Tris pH 7.5, 22 C; not inhibited by JC-229; conditions: tags: N-terminal 6xHis, pET28a (pSR16), E. coli; label: 5' Cy5
# Experimental: as §1, §2
# HsRPA1 DBD-AB = HsRPA1 DBD-AB (Homo sapiens, UniProt P27694 P27694:181-422); assay: as above; conditions: tags: 6xHis, pET28a (pSR15), E. coli; label: 5' Cy5
# HsRPA1 DBD-AB, sequence (P27694 181-422, one chain of several): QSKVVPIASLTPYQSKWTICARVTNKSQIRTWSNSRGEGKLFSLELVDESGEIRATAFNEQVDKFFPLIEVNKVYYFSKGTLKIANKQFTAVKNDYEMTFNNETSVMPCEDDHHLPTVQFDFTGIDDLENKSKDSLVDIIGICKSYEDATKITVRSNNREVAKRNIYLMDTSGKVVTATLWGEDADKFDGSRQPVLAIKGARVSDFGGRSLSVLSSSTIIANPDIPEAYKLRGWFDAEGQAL
# Experimental: as §1, §2
# [1] = molecular target: T3, TbRPA complex (RPA1/RPA2/RPA3); assay: MST; 10 mM MgCl2, 10 mM NaCl, Tris pH 7.5, 22 C; JC-229 inhibits binding, IC50 24.5 nM; conditions: tags: 6xHis-thrombin site on RPA1 (pSR8), E. coli; one complex per dT32 stated; label: 5' Cy5
# Experimental: FIG. 5C are graphs showing recombinant TbRPA complex was 2-fold serially diluted from 400 nM concentration and these were incubated with 10 nM 5′Cy5-dT₃₂. Binding was analyzed by MST (left). Serial dilutions of JC-229 were pre-incubated with 25 nM TbRPA complex and then with 10 nM 5′Cy5-dT₃₂. Inhibition of binding was analyzed by MST (right).
# as §1, §2
binder,measurement,setting,value
TTTTTTTTTTTTTTTTTTTTTTTTTTTTTTTT (ssDNA) [5'Cy5-dT32],Kd,TcRPA1 DBD-AB T105S,52.4 nM
same,binding result,TbRPA1 DBD-AB F64A,no binding
same,binding result,TbRPA1 DBD-AB W188A,no binding
same,Kd,TcRPA1 DBD-AB,13.2 nM
same,Kd,LmexRPA1 DBD-AB,12.6 nM
same,Kd,HsRPA1 DBD-AB,48 nM
same,Kd,[1],13.2 nM
